# Assay results: publication PMC10001252
# Columns and labels:
# β-lactoglobulin (bovine) [1] = target: β-lactoglobulin (bovine) (UniProt P02754); experiment: ITC; LF (0.25 mM, syringe) injected into βLG (0.1 mM, cell); 10 mM MES pH 5.5, no added NaCl, 25 °C; fitted with PyTC
# β-lactoglobulin (bovine) [2] = target: β-lactoglobulin (bovine) (UniProt P02754); experiment: ITC; LF (0.25 mM, syringe) injected into βLG (0.1 mM, cell); 10 mM MES pH 5.5, 5 mM added NaCl, 25 °C; fitted with PyTC
# β-lactoglobulin (bovine) [3] = target: β-lactoglobulin (bovine) (UniProt P02754); experiment: ITC; LF (0.25 mM, syringe) injected into βLG (0.1 mM, cell); 10 mM MES pH 5.5, 15 mM added NaCl, 25 °C; fitted with PyTC
# β-lactoglobulin (bovine) [4] = target: β-lactoglobulin (bovine) (UniProt P02754); experiment: ITC; LF (0.25 mM, syringe) injected into βLG (0.1 mM, cell); 10 mM MES pH 5.5, 20 mM added NaCl, 25 °C; fitted with PyTC
# β-lactoglobulin (bovine) [5] = target: β-lactoglobulin (bovine) (UniProt P02754); experiment: ITC; LF (0.25 mM, syringe) injected into βLG (0.1 mM, cell); 10 mM MES pH 5.5, 2.5 mM added NaCl, 25 °C; fitted with PyTC
# β-lactoglobulin (bovine) [6] = target: β-lactoglobulin (bovine) (UniProt P02754); experiment: co-sedimentation + other: turbidity; LF-βLG mixtures (total 0.55 mM) prepared at 0, 100, 200 or 400 mM NaCl and desalted by dialysis (24 h) against 10 mM MES pH 5.5, room temperature; coacervate yield after centrifugation at 28,000 g and HPLC of the supernatant
substance,measurement,setting,value
lactoferrin (natural protein),Ka,β-lactoglobulin (bovine) [1],421000 M⁻¹
same,dH,β-lactoglobulin (bovine) [1],-18.8 kcal/mol
same,Ka,β-lactoglobulin (bovine) [2],275000 M⁻¹
same,dH,β-lactoglobulin (bovine) [2],-14.6 kcal/mol
same,Ka,β-lactoglobulin (bovine) [3],84700 M⁻¹
same,dH,β-lactoglobulin (bovine) [3],-12.1 kcal/mol
same,Ka,β-lactoglobulin (bovine) [4],33200 M⁻¹
same,dH,β-lactoglobulin (bovine) [4],-8.94 kcal/mol
same,Ka,β-lactoglobulin (bovine) [5],972000 M⁻¹
same,dH,β-lactoglobulin (bovine) [5],-24.7 kcal/mol
same,coacervate yield,β-lactoglobulin (bovine) [6],55 to 65%
